Reference: publication PMC2764441
Values joined by “and” are separate entries in the source; they are usually repeats but may differ in a detail not shown here. Identical values can stand only once.

How the values were obtained:
[1] = target: NF-kB p65 homodimer, human (human, UniProt Q04206 19-306); experiment: EMSA
[2] = target: NF-kB p65 homodimer, murine (mouse, UniProt Q04207 19-306); experiment: EMSA
[3] = target: T1, NF-κB p65 (recombinant p65) (not stated (human or murine protein purified)), Q04207; experiment: cross-linking; settings: remark: other sources report otherwise
T1 chain: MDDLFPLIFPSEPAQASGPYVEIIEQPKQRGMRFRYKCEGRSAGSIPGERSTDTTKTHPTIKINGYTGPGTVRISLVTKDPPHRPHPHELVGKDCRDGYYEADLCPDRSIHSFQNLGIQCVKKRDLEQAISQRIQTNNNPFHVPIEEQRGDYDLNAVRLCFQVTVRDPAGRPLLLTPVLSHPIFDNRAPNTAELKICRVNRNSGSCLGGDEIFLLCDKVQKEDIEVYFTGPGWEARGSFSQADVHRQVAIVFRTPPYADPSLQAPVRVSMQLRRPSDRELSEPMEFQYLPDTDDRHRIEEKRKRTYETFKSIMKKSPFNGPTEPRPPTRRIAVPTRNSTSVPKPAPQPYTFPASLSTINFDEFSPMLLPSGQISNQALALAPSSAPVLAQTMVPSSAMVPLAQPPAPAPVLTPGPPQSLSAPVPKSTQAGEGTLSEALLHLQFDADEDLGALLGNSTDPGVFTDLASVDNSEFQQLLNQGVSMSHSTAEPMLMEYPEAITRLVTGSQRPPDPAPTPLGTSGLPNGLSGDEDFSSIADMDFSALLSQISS

[4] = target: T2, NF-κB p50 (recombinant human p50) (human), P19838; experiment: cross-linking; settings: remark: other sources report otherwise
T2 chain: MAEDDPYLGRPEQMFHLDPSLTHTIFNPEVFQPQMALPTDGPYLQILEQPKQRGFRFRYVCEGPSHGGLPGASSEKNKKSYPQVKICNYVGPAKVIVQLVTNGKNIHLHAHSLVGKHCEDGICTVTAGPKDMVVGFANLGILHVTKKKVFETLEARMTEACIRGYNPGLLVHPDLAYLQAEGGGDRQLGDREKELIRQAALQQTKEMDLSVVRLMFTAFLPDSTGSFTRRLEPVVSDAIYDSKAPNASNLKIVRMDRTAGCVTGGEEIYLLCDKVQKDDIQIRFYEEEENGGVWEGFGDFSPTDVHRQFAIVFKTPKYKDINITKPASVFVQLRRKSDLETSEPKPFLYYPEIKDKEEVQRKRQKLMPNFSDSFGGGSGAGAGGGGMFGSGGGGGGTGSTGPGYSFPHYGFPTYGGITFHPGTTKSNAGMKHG

Sequence of NF-kB p65 homodimer, human (Q04206 19-306): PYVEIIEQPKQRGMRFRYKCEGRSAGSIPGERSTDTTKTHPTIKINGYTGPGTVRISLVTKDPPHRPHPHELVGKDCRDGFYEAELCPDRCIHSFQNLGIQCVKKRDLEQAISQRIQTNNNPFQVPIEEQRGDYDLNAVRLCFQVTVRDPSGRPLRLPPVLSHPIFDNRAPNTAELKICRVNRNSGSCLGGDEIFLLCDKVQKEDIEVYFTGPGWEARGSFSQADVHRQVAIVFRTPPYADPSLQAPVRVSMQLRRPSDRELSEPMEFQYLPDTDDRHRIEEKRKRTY

B1: R1 anti-p65 RNA aptamer (structured_RNA)
RNA: GAAGCUUACAAGAAGGACAGCACGAAUAAAACCUGCGUAAAUCCGCCCCAUUUGUGUAAGGGUAGUGGGUCGAAUUCCGCUCA
Which results are given for B1?
binding result [1]: binds; Kd [2]: 38 ± 20 nM

B2: NF-κB p65 (recombinant p65), Q04207 1-549 (natural protein)
chain: MDDLFPLIFPSEPAQASGPYVEIIEQPKQRGMRFRYKCEGRSAGSIPGERSTDTTKTHPTIKINGYTGPGTVRISLVTKDPPHRPHPHELVGKDCRDGYYEADLCPDRSIHSFQNLGIQCVKKRDLEQAISQRIQTNNNPFHVPIEEQRGDYDLNAVRLCFQVTVRDPAGRPLLLTPVLSHPIFDNRAPNTAELKICRVNRNSGSCLGGDEIFLLCDKVQKEDIEVYFTGPGWEARGSFSQADVHRQVAIVFRTPPYADPSLQAPVRVSMQLRRPSDRELSEPMEFQYLPDTDDRHRIEEKRKRTYETFKSIMKKSPFNGPTEPRPPTRRIAVPTRNSTSVPKPAPQPYTFPASLSTINFDEFSPMLLPSGQISNQALALAPSSAPVLAQTMVPSSAMVPLAQPPAPAPVLTPGPPQSLSAPVPKSTQAGEGTLSEALLHLQFDADEDLGALLGNSTDPGVFTDLASVDNSEFQQLLNQGVSMSHSTAEPMLMEYPEAITRLVTGSQRPPDPAPTPLGTSGLPNGLSGDEDFSSIADMDFSALLSQISS
For B2, which stoichiometry N [3] is on record?
Its stoichiometry N is 2.

B3: NF-κB p50 (recombinant human p50), P19838 1-433 (natural protein)
chain: MAEDDPYLGRPEQMFHLDPSLTHTIFNPEVFQPQMALPTDGPYLQILEQPKQRGFRFRYVCEGPSHGGLPGASSEKNKKSYPQVKICNYVGPAKVIVQLVTNGKNIHLHAHSLVGKHCEDGICTVTAGPKDMVVGFANLGILHVTKKKVFETLEARMTEACIRGYNPGLLVHPDLAYLQAEGGGDRQLGDREKELIRQAALQQTKEMDLSVVRLMFTAFLPDSTGSFTRRLEPVVSDAIYDSKAPNASNLKIVRMDRTAGCVTGGEEIYLLCDKVQKDDIQIRFYEEEENGGVWEGFGDFSPTDVHRQFAIVFKTPKYKDINITKPASVFVQLRRKSDLETSEPKPFLYYPEIKDKEEVQRKRQKLMPNFSDSFGGGSGAGAGGGGMFGSGGGGGGTGSTGPGYSFPHYGFPTYGGITFHPGTTKSNAGMKHG
With B3 as the binder, how does the stoichiometry N [4] read?
Its stoichiometry N is 2 and 4.
